Each block holds one substance with its values, some of them ahead of it.
What was measured:
Assay in all cases: cell-based or functional assay
human zcytor19 (human) = target: human zcytor19 (human)
IL10Rb (CRF2-4) (human) = IL10Rb (CRF2-4) (human) (UniProt Q08334)
[1] = target: zcytoR19 and IL10Rb (CRF2-4) coexpressed on BHK cells (human)

Chain of IL10Rb (CRF2-4) (human) (Q08334 20-325 limits assumed, form in doubt): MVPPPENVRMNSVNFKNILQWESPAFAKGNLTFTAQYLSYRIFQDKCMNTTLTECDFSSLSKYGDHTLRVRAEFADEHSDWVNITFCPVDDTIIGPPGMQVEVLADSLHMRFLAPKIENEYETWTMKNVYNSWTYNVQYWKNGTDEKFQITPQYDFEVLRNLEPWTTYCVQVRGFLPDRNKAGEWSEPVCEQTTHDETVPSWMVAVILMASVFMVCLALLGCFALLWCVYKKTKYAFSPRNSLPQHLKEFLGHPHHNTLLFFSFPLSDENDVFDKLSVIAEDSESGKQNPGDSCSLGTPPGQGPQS

ISRE-luciferase fold induction; 293 cells transfected with ISRE-Luc./Zcytor19; HuIL 10 100ng/ml (fold induction) (human zcytor19 (human)): 0.5
Substance: huIL10 (from UniProt P22301 19-178) (ligand)

ISRE-luciferase fold induction; 293 cells transfected with ISRE-Luc./Zcytor19; Zcyto10 125ng/ml (fold induction) (human zcytor19 (human)): 1
Substance: zcyto10 (from UniProt Q9NYY1 25-176) (ligand)

ISRE-luciferase fold induction; 293 cells transfected with ISRE-Luc./Zcytor19; Zcyto20 125ng/ml (fold induction) (human zcytor19 (human)): 125
ISRE-luciferase fold induction; BHK cells transfected with zcytoR19 alone; zcyto20 0.001 ng/ml (fold induction) (human zcytor19 (human)): 1.4
ISRE-luciferase fold induction; BHK cells transfected with zcytoR19 alone; zcyto20 0.01 ng/ml (fold induction) (human zcytor19 (human)): 1.2
ISRE-luciferase fold induction; BHK cells transfected with zcytoR19 alone; zcyto20 0.1 ng/ml (fold induction) (human zcytor19 (human)): 1.25
ISRE-luciferase fold induction; BHK cells transfected with zcytoR19 alone; zcyto20 1 ng/ml (fold induction) (human zcytor19 (human)): 1.3
ISRE-luciferase fold induction; BHK cells transfected with zcytoR19 alone; zcyto20 10 ng/ml (fold induction) (human zcytor19 (human)): 2.1
ISRE-luciferase fold induction; BHK cells transfected with zcytoR19 alone; zcyto20 100 ng/ml (fold induction) (human zcytor19 (human)): 2.2
ISRE-luciferase fold induction; BHK cells transfected with zcytoR19 alone; zcyto20 1000 ng/ml (fold induction) (human zcytor19 (human)): 2.25
ISRE-luciferase fold induction; wild-type 293 cells; Zcyto20 0.01 ng/ml; + IL10Rb neutralizing antibody (8 ug/ml) (fold induction) (IL10Rb (CRF2-4) (human)): 0.8
ISRE-luciferase fold induction; wild-type 293 cells; Zcyto20 0.01 ng/ml; no antibody (fold induction) (IL10Rb (CRF2-4) (human)): 1
ISRE-luciferase fold induction; wild-type 293 cells; Zcyto20 0.1 ng/ml; + IL10Rb neutralizing antibody (8 ug/ml) (fold induction) (IL10Rb (CRF2-4) (human)): 1
ISRE-luciferase fold induction; wild-type 293 cells; Zcyto20 0.1 ng/ml; no antibody (fold induction) (IL10Rb (CRF2-4) (human)): 1
ISRE-luciferase fold induction; wild-type 293 cells; Zcyto20 1 ng/ml; + IL10Rb neutralizing antibody (8 ug/ml) (fold induction) (IL10Rb (CRF2-4) (human)): 0.9
ISRE-luciferase fold induction; wild-type 293 cells; Zcyto20 1 ng/ml; no antibody (fold induction) (IL10Rb (CRF2-4) (human)): 1
ISRE-luciferase fold induction; wild-type 293 cells; Zcyto20 10 ng/ml; + IL10Rb neutralizing antibody (8 ug/ml) (fold induction) (IL10Rb (CRF2-4) (human)): 0.9
ISRE-luciferase fold induction; wild-type 293 cells; Zcyto20 10 ng/ml; no antibody (fold induction) (IL10Rb (CRF2-4) (human)): 4
ISRE-luciferase fold induction; wild-type 293 cells; Zcyto20 100 ng/ml; + IL10Rb neutralizing antibody (8 ug/ml) (fold induction) (IL10Rb (CRF2-4) (human)): 0.8
ISRE-luciferase fold induction; wild-type 293 cells; Zcyto20 100 ng/ml; no antibody (fold induction) (IL10Rb (CRF2-4) (human)): 8.4
ISRE-luciferase fold induction; zcytoR19-overexpressing 293 cells; Zcyto20 0.01 ng/ml; + IL10Rb neutralizing antibody (8 ug/ml) (fold induction) (IL10Rb (CRF2-4) (human)): 1.2
ISRE-luciferase fold induction; zcytoR19-overexpressing 293 cells; Zcyto20 0.01 ng/ml; no antibody (fold induction) (IL10Rb (CRF2-4) (human)): 1.1
ISRE-luciferase fold induction; zcytoR19-overexpressing 293 cells; Zcyto20 0.1 ng/ml; + IL10Rb neutralizing antibody (8 ug/ml) (fold induction) (IL10Rb (CRF2-4) (human)): 1.1
ISRE-luciferase fold induction; zcytoR19-overexpressing 293 cells; Zcyto20 0.1 ng/ml; no antibody (fold induction) (IL10Rb (CRF2-4) (human)): 6
ISRE-luciferase fold induction; zcytoR19-overexpressing 293 cells; Zcyto20 1 ng/ml; + IL10Rb neutralizing antibody (8 ug/ml) (fold induction) (IL10Rb (CRF2-4) (human)): 1.3
ISRE-luciferase fold induction; zcytoR19-overexpressing 293 cells; Zcyto20 1 ng/ml; no antibody (fold induction) (IL10Rb (CRF2-4) (human)): 68
ISRE-luciferase fold induction; zcytoR19-overexpressing 293 cells; Zcyto20 10 ng/ml; + IL10Rb neutralizing antibody (8 ug/ml) (fold induction) (IL10Rb (CRF2-4) (human)): 23
ISRE-luciferase fold induction; zcytoR19-overexpressing 293 cells; Zcyto20 10 ng/ml; no antibody (fold induction) (IL10Rb (CRF2-4) (human)): 97
ISRE-luciferase fold induction; zcytoR19-overexpressing 293 cells; Zcyto20 100 ng/ml; + IL10Rb neutralizing antibody (8 ug/ml) (fold induction) (IL10Rb (CRF2-4) (human)): 60
ISRE-luciferase fold induction; zcytoR19-overexpressing 293 cells; Zcyto20 100 ng/ml; no antibody (fold induction) (IL10Rb (CRF2-4) (human)): 91
ISRE-luciferase fold induction; BHK cells transfected with zcytoR19 and IL10Rb (CRF2-4); zcyto20 0.001 ng/ml (fold induction) [1]: 1.5
ISRE-luciferase fold induction; BHK cells transfected with zcytoR19 and IL10Rb (CRF2-4); zcyto20 0.01 ng/ml (fold induction) [1]: 1.6
ISRE-luciferase fold induction; BHK cells transfected with zcytoR19 and IL10Rb (CRF2-4); zcyto20 0.1 ng/ml (fold induction) [1]: 2.1
ISRE-luciferase fold induction; BHK cells transfected with zcytoR19 and IL10Rb (CRF2-4); zcyto20 1 ng/ml (fold induction) [1]: 2.5
ISRE-luciferase fold induction; BHK cells transfected with zcytoR19 and IL10Rb (CRF2-4); zcyto20 10 ng/ml (fold induction) [1]: 2.4
ISRE-luciferase fold induction; BHK cells transfected with zcytoR19 and IL10Rb (CRF2-4); zcyto20 100 ng/ml (fold induction) [1]: 2.6
ISRE-luciferase fold induction; BHK cells transfected with zcytoR19 and IL10Rb (CRF2-4); zcyto20 1000 ng/ml (fold induction) [1]: 2.1
Substance: zcyto20 (ligand)

Reference: patent EP1942187B1
